According to patent publication US20240174765A1 (ACADEMIA SINICA, published 2024):
Each block holds one binder with its values, some of them ahead of it.

Tests used:
[1] = target: T1, enolase 1 (ENO1), endogenous in CL1-5 human lung cancer cells (human, UniProt P06733 2-434); experiment: flow cytometry on live cells
T1 construct: whole, on cells; Used for ENO1 on the surface of live or fixed CL1-5 cells, and for endogenous ENO1 in CL1-5 membrane extracts and lysates (cross-link IP, co-IP); also called alpha-enolase; surface form ENO1
T1 sequence (P06733 2-434): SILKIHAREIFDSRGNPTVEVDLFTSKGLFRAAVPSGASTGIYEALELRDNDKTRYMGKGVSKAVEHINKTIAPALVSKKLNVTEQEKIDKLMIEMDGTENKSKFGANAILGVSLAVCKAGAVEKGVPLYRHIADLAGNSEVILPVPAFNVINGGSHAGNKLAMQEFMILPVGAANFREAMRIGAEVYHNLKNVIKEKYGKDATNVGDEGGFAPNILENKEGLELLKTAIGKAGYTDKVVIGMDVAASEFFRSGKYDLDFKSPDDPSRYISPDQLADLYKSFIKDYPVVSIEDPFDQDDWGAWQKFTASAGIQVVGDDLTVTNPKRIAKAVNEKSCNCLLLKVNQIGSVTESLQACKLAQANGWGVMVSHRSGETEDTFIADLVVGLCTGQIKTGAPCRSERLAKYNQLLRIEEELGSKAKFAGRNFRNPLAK

[2] = target: T1, enolase 1 (ENO1), endogenous in CL1-5 …; experiment: flow cytometry on live CL1-5 cells

binding result [1]: binds
B1: chimeric ENO1-22 (chENO1-22) (antibody, V domains shown)
VH: QVQLQQSGPEVVRPGVSVKISCKGSGYTFTDYAMHWVKQSHAKSLEWIGVISTYNGNTNYNQKFKGKATMTVDKSSSTAYMELARLTSEDSAIYYCARSPLRYWGQGTTLTVSS
VL: QIVLSQSPAILSASPGEKVTMTCRASSSVSYMHWYQQKPGSSPKPWIYATSNLASGVPARFSGSGSGTSYSLTISRVEAEDAATYYCQQWSSNPLTFGAGTKLELK
notes: Variable domain of anti-ENO1 mAb-22 cloned into a human IgG Fc vector; also called chimeric ENO1 mAb; chimeric ENO1 antibody

binding result [2]: binds
B2: anti-ENO1 mAb-22 (antibody, V domains shown)
VH: B1 VH
VL: B1 VL
notes: Mouse hybridoma monoclonal antibody; also called ENO1-22; anti-ENO1 mAb-22 antibody
